# Laboratory results reported in the RNAGym collection of RNA variant scans (doi:10.1093/molbev/msab373).
# B1: Azoarcus group I ribozyme (parent)
# chain: GUGCCUUGCGCCGGGAAACCACGCAAGGGAUGGUGUCAAAUUCGGCGAAACCUAAGCGCCCGCCCGGGCGUAUGGCAACGCCGAGCCAAGCUUCGGCGCCUGCGCCGAUGAAGGUGUAGAGACUAGACGGCACCCACCUAAGGCAAACGCUAUGGUGAAGGCAUAGUCCAGGGAGUGGCGAAAGUCACACAAACCGG
# Variants of: B1
# Experiment: reverse-splicing fitness (ratio to wild type); higher = more active; in vitro selection; Mg2+ level not given
# How it was run: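 An in vitro group I ribozyme library with randomized positions was T7-transcribed and gel-purified. In triplicate, 10 pmol RNA in EPPS pH 7.5 was reacted with 50 pmoles of a 30-nt RNA substrate for 1 h at 37 °C across several added MgCl2 levels (1–48 mM), then stopped with EDTA. Products were reverse transcribed from a substrate-complementary primer, PCR-amplified and sequenced (HiSeq 4000). Fitness is a variant's read proportion after selection over that before, normalised to wild type.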
row,Variant,reverse-splicing fitness
1,A111G A120G A145C C150U,0.0745
2,A111G A120C C169A U176G,0.00421
3,A111G A120C C169A U176C,0.0167
4,A111G A120C C169A U176A,0.0147
5,A111G A120G A145C C150A C169G U176C,0.0168
6,A111G A120G A145C C150A C169G U176G,0.00542
7,A111G A120G A145C C150A C169G U176A,0.0264
8,A111G A120C A145U C150G C169G U176G,0.00416
9,A111G A120C A145U C150G C169G U176C,0.00451
10,A111G A120C A145U C150G C169G U176A,0.00655
11,A111C C150U U176G,0.138
12,A111C C150U U176A,0.339
13,A111C C150U U176C,0.388
14,A111G A120C C150G C169A,0.00889
15,A111G A120C C150G C169G,0.0068
16,A111G A120C C150G C169U,0.0262
17,A111G A120C A145G U176C,0.44
18,A111G A120C A145G U176A,0.457
19,A111G A120C A145G U176G,0.0972
20,A111G A120C A145C C150U C169A,0.00825
21,A111G A120C A145C C150U C169G,0.00938
22,A111G A120C A145C C150U C169U,0.0786
23,A111G A120C A145C C150A C169A U176C,0.0045
24,A111G A120C A145C C150A C169A U176G,0.00443

row,Variant,reverse-splicing fitness
1,A111G A120C A145C C150A C169A U176A,0.00728
2,A111G A120G A145C C150G C169G U176A,0.0101
3,A111G A120G A145C C150G C169G U176G,0.00389
4,A111G A120G A145C C150G C169G U176C,0.00653
5,A111G A120C A145U C150G C169A U176A,0.00723
6,A111G A120C A145U C150G C169A U176G,0.00414
7,A111G A120C A145U C150G C169A U176C,0.00745
8,A111C C150U C169G U176C,0.0234
9,A111C C150U C169G U176G,0.0072
10,A111C C150U C169G U176A,0.014
11,A111G A120G A145C,0.266
12,A111G A120C A145C C150G U176C,0.0508
13,A111G A120C A145C C150G U176A,0.0148
14,A111G A120C A145C C150G U176G,0.00421
15,A111G A120C A145C C169G U176G,0.00352
16,A111G A120C A145C C169G U176C,0.00881
17,A111G A120C A145C C169G U176A,0.0167
18,A111G A120C C169G U176A,0.0158
19,A111G A120C C169G U176C,0.0183
20,A111G A120C C169G U176G,0.00351
21,A111G A120C A145C C150A C169U U176C,0.012
22,A111G A120C A145C C150A C169U U176A,0.016
23,A111G A120C A145C C150A C169U U176G,0.00433
24,A111G A120C U176A,0.47

row,Variant,reverse-splicing fitness
1,A111G A120C U176C,0.522
2,A111G A120C U176G,0.125
3,A111G A120C A145U C150G C169U,0.0352
4,A111G A120C A145U C150G C169A,0.00821
5,A111G A120C A145U C150G C169G,0.00597
6,A111G A120C A145G C150A C169G,0.0108
7,A111G A120C A145G C150A C169U,0.0508
8,A111G A120C A145G C150A C169A,0.0114
9,A111G A120C A145U C150U U176A,0.365
10,A111G A120C A145U C150U U176C,0.357
11,A111G A120C A145U C150U U176G,0.0965
12,A111G A120C A145C C150U U176G,0.05
13,A111G A120C A145C C150U U176C,0.158
14,A111G A120C A145C C150U U176A,0.17
15,A111G A120G A145C C150A C169A U176G,0.00399
16,A111G A120G A145C C150A C169A U176C,0.00695
17,A111G A120G A145C C150A C169A U176A,0.0135
18,A111G A120C C169U U176A,0.0684
19,A111G A120C C169U U176C,0.0857
20,A111G A120C C169U U176G,0.00675
21,A111G A120G A145C C150A U176G,0.00495
22,A111G A120G A145C C150A U176C,0.0131
23,A111G A120G A145C C150A U176A,0.0131
24,A111C C150G C169U U176A,0.00732

row,Variant,reverse-splicing fitness
1,A111C C150G C169U U176C,0.014
2,A111C C150G C169U U176G,0.00651
3,A111G A120C A145G C169G U176C,0.0194
4,A111G A120C A145G C169G U176G,0.00387
5,A111G A120C A145G C169G U176A,0.019
6,A111G A120C A145U,0.745
7,A111G A120C A145C,0.653
8,A111G A120C A145G,0.688
9,A111G A120C A145U C150G U176G,0.00444
10,A111G A120C A145U C150G U176A,0.0189
11,A111G A120C A145U C150G U176C,0.0545
12,A111G A120C C169A,0.0146
13,A111G A120C C169U,0.271
14,A111G A120C C169G,0.0129
15,A111G A120C A145G C150U C169G U176A,0.0195
16,A111G A120C A145G C150U C169G U176G,0.00469
17,A111G A120C A145G C150U C169G U176C,0.0192
18,A111G A120C A145G C150U,0.582
19,A111G A120C A145G C150G,0.0893
20,A111G A120C A145G C150A,0.166
21,A111G A120G A145C C150U C169A,0.0431
22,A111C C150U C169U,0.0632
23,A111C C150U C169G,0.0354
24,A111C C150U C169A,0.0198

row,Variant,reverse-splicing fitness
1,A111G A120C A145U U176A,0.482
2,A111G A120C A145U U176G,0.172
3,A111G A120C A145U U176C,0.45
4,A111G A120C C150A,0.124
5,A111G A120C C150U,0.528
6,A111G A120C C150G,0.0783
7,A111G A120C A145G C169A U176C,0.0197
8,A111G A120C A145G C169A U176A,0.0173
9,A111G A120C A145G C169A U176G,0.00366
10,A111G A120C A145U C150A C169G U176A,0.0144
11,A111G A120C A145U C150A C169G U176G,0.00393
12,A111G A120C A145U C150A C169G U176C,0.011
13,A111G A120C C150A C169G,0.00862
14,A111G A120C C150A C169A,0.00922
15,A111G A120C C150A C169U,0.0403
16,A111G A120C A145C C169U,0.223
17,A111G A120C A145C C169G,0.0105
18,A111G A120C A145C C169A,0.0128
19,A111C C150G C169G U176C,0.00414
20,A111C C150G C169G U176G,0.00532
21,A111C C150G C169G U176A,0.00634
22,A111G A120C A145G C150G C169G U176C,0.00529
23,A111G A120C A145G C150G C169G U176A,0.00741
24,A111G A120C A145G C150G C169G U176G,0.00503

row,Variant,reverse-splicing fitness
1,A111G A120G,0.3
2,A111G A120C,0.806
3,A111G A120C A145U C169G U176G,0.0045
4,A111G A120C A145U C169G U176A,0.00894
5,A111G A120C A145U C169G U176C,0.00882
6,A111G A120C A145G C150U C169G,0.0142
7,A111G A120C A145G C150U C169A,0.0158
8,A111G A120C A145G C150U C169U,0.224
9,A111G A120C A145C C150G C169G U176G,0.0036
10,A111G A120C A145C C150G C169G U176C,0.00487
11,A111G A120C A145C C150G C169G U176A,0.00746
12,A111G A120C A145U C150A C169G,0.00748
13,A111G A120C A145U C150A C169U,0.033
14,A111G A120C A145U C150A C169A,0.00758
15,A111G A120G A145C C150A C169A,0.0124
16,A111G A120G A145C C150A C169U,0.0192
17,A111G A120G A145C C150A C169G,0.0196
18,A111G A120C C150A U176A,0.0735
19,A111G A120C C150A U176G,0.0222
20,A111G A120C C150A U176C,0.0799
21,A111G A120C C150G C169A U176C,0.00784
22,A111G A120C C150G C169A U176G,0.00466
23,A111G A120C C150G C169A U176A,0.00551
24,A111G A120C A145G C150A C169G U176C,0.0221

row,Variant,reverse-splicing fitness
1,A111G A120C A145G C150A C169G U176G,0.00551
2,A111G A120C A145G C150A C169G U176A,0.0231
3,A111G A120C A145U C150U C169A U176A,0.0122
4,A111G A120C A145U C150U C169A U176C,0.00821
5,A111G A120C A145U C150U C169A U176G,0.00393
6,A111G A120C A145C C150G C169A U176G,0.00452
7,A111G A120C A145C C150G C169A U176C,0.00524
8,A111G A120C A145C C150G C169A U176A,0.00532
9,A111G A120C A145G C150G C169A,0.00936
10,A111G A120C A145G C150G C169U,0.0255
11,A111G A120C A145G C150G C169G,0.0082
12,A111G A120C C150U C169A,0.012
13,A111G A120C C150U C169U,0.161
14,A111G A120C C150U C169G,0.0131
15,A111G A120C C150A C169A U176G,0.00468
16,A111G A120C C150A C169A U176A,0.0158
17,A111G A120C C150A C169A U176C,0.0167
18,A111G A120C A145G C150U C169A U176A,0.016
19,A111G A120C A145G C150U C169A U176G,0.00456
20,A111G A120C A145G C150U C169A U176C,0.0149
21,A111G A120C C150U U176A,0.314
22,A111G A120C C150U U176G,0.0682
23,A111G A120C C150U U176C,0.337
